B1: library; numbered along this chain (parent)
chain: MAAAAAAAAEQQSSNGPVKKSMREKAVERRSVNKEHNSNFKAGYIPIDEDRLHKTGLRGRKGNLAICVIILLFILAVINLIITLVIWAVIRIGPNGCDSMEFHESGLLRFKQVSDMGVIHPLYKSTVGGRRNENLVITGNNQPIVFQQGTTKLSVENNKTSITSDIGMQFFDPRTQNILFSTDYETHEFHLPSGVKSLNVQKASTERITSNATSDLNIKVDGRAIVRGNEGVFIMGKTIEFHMGGNMELKAENSIILNGSVMVSTTRLPSSSSGDQLGSGDWVRYKLCMCADGTLFKVQVTSQNMGCQISDNPCGNTH

Variants of: B1
Assay: SGCB cell-surface expression functional score (HA stain, bin4 vs bin1, normalised to synonymous) (log10 ratio); higher = more cell-surface SGCB (functional)
Summary of the method: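 HEK293 cells stably expressing alpha-, gamma- and delta-sarcoglycan received codon-saturation libraries of HA-tagged, YFP-fused human beta-sarcoglycan by lentiviral transduction at MOI <0.1, performed in duplicate. Cells positive for YFP were sorted after 72 hours and cultured for 5–7 days, then stained on ice with Alexa Fluor 647 anti-HA and fixed. Fixed cells were sorted into four 5% intensity bins and amplicon-sequenced, and the log ratio of highest-bin to lowest-bin variant frequency, as a median over codons and transductions, gives the functional score. Per section, synonymous variants were scaled to mean 0, SD 0.5.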

| Variant | SGCB cell-surface expression functional score (log10) |
| --- | --- |
| MAAAAAAAAEQQSSNGPVKKSMREKAVERRSVNKEHNSNFKAGYIPIDEDRLHKTGLRGRKGNLAICVIILLFILAVINLIITLVIWAVIRIGPNGCDSMEFGESGLLRFKQVSDMGVIHPLYKSTVGGRRNENLVITGNNQPIVFQQGTTKLSVENNKTSITSDIGMQFFDPRTQNILFSTDYETHEFHLPSGVKSLNVQKASTERITSNATSDLNIKVDGRAIVRGNEGVFIMGKTIEFHMGGNMELKAENSIILNGSVMVSTTRLPSSSSGDQLGSGDWVRYKLCMCADGTLFKVQVTSQNMGCQISDNPCGNTH [H103G] | 0.07 |
| MAAAAAAAAEQQSSNGPVKKSMREKAVERRSVNKEHNSNFKAGYIPIDEDRLHKTGLRGRKGNLAICVIILLFILAVINLIITLVIWAVIRIGPNGCDSMEFLESGLLRFKQVSDMGVIHPLYKSTVGGRRNENLVITGNNQPIVFQQGTTKLSVENNKTSITSDIGMQFFDPRTQNILFSTDYETHEFHLPSGVKSLNVQKASTERITSNATSDLNIKVDGRAIVRGNEGVFIMGKTIEFHMGGNMELKAENSIILNGSVMVSTTRLPSSSSGDQLGSGDWVRYKLCMCADGTLFKVQVTSQNMGCQISDNPCGNTH [H103L] | 0.33 |
| MAAAAAAAAEQQSSNGPVKKSMREKAVERRSVNKEHNSNFKAGYIPIDEDRLHKTGLRGRKGNLAICVIILLFILAVINLIITLVIWAVIRIGPNGCDSMEFWESGLLRFKQVSDMGVIHPLYKSTVGGRRNENLVITGNNQPIVFQQGTTKLSVENNKTSITSDIGMQFFDPRTQNILFSTDYETHEFHLPSGVKSLNVQKASTERITSNATSDLNIKVDGRAIVRGNEGVFIMGKTIEFHMGGNMELKAENSIILNGSVMVSTTRLPSSSSGDQLGSGDWVRYKLCMCADGTLFKVQVTSQNMGCQISDNPCGNTH [H103W] | 0.06 |
| MAAAAAAAAEQQSSNGPVKKSMREKAVERRSVNKEHNSNFKAGYIPIDEDRLHKTGLRGRKGNLAICVIILLFILAVINLIITLVIWAVIRIGPNGCDSMEFIESGLLRFKQVSDMGVIHPLYKSTVGGRRNENLVITGNNQPIVFQQGTTKLSVENNKTSITSDIGMQFFDPRTQNILFSTDYETHEFHLPSGVKSLNVQKASTERITSNATSDLNIKVDGRAIVRGNEGVFIMGKTIEFHMGGNMELKAENSIILNGSVMVSTTRLPSSSSGDQLGSGDWVRYKLCMCADGTLFKVQVTSQNMGCQISDNPCGNTH [H103I] | -0.36 |
| MAAAAAAAAEQQSSNGPVKKSMREKAVERRSVNKEHNSNFKAGYIPIDEDRLHKTGLRGRKGNLAICVIILLFILAVINLIITLVIWAVIRIGPNGCDSMEFQESGLLRFKQVSDMGVIHPLYKSTVGGRRNENLVITGNNQPIVFQQGTTKLSVENNKTSITSDIGMQFFDPRTQNILFSTDYETHEFHLPSGVKSLNVQKASTERITSNATSDLNIKVDGRAIVRGNEGVFIMGKTIEFHMGGNMELKAENSIILNGSVMVSTTRLPSSSSGDQLGSGDWVRYKLCMCADGTLFKVQVTSQNMGCQISDNPCGNTH [H103Q] | 0.36 |
| MAAAAAAAAEQQSSNGPVKKSMREKAVERRSVNKEHNSNFKAGYIPIDEDRLHKTGLRGRKGNLAICVIILLFILAVINLIITLVIWAVIRIGPNGCDSMEFVESGLLRFKQVSDMGVIHPLYKSTVGGRRNENLVITGNNQPIVFQQGTTKLSVENNKTSITSDIGMQFFDPRTQNILFSTDYETHEFHLPSGVKSLNVQKASTERITSNATSDLNIKVDGRAIVRGNEGVFIMGKTIEFHMGGNMELKAENSIILNGSVMVSTTRLPSSSSGDQLGSGDWVRYKLCMCADGTLFKVQVTSQNMGCQISDNPCGNTH [H103V] | 0.29 |
| MAAAAAAAAEQQSSNGPVKKSMREKAVERRSVNKEHNSNFKAGYIPIDEDRLHKTGLRGRKGNLAICVIILLFILAVINLIITLVIWAVIRIGPNGCDSMEFYESGLLRFKQVSDMGVIHPLYKSTVGGRRNENLVITGNNQPIVFQQGTTKLSVENNKTSITSDIGMQFFDPRTQNILFSTDYETHEFHLPSGVKSLNVQKASTERITSNATSDLNIKVDGRAIVRGNEGVFIMGKTIEFHMGGNMELKAENSIILNGSVMVSTTRLPSSSSGDQLGSGDWVRYKLCMCADGTLFKVQVTSQNMGCQISDNPCGNTH [H103Y] | -0.3 |
| MAAAAAAAAEQQSSNGPVKKSMREKAVERRSVNKEHNSNFKAGYIPIDEDRLHKTGLRGRKGNLAICVIILLFILAVINLIITLVIWAVIRIGPNGCDSMEFFESGLLRFKQVSDMGVIHPLYKSTVGGRRNENLVITGNNQPIVFQQGTTKLSVENNKTSITSDIGMQFFDPRTQNILFSTDYETHEFHLPSGVKSLNVQKASTERITSNATSDLNIKVDGRAIVRGNEGVFIMGKTIEFHMGGNMELKAENSIILNGSVMVSTTRLPSSSSGDQLGSGDWVRYKLCMCADGTLFKVQVTSQNMGCQISDNPCGNTH [H103F] | -0.14 |
| MAAAAAAAAEQQSSNGPVKKSMREKAVERRSVNKEHNSNFKAGYIPIDEDRLHKTGLRGRKGNLAICVIILLFILAVINLIITLVIWAVIRIGPNGCDSMEFRESGLLRFKQVSDMGVIHPLYKSTVGGRRNENLVITGNNQPIVFQQGTTKLSVENNKTSITSDIGMQFFDPRTQNILFSTDYETHEFHLPSGVKSLNVQKASTERITSNATSDLNIKVDGRAIVRGNEGVFIMGKTIEFHMGGNMELKAENSIILNGSVMVSTTRLPSSSSGDQLGSGDWVRYKLCMCADGTLFKVQVTSQNMGCQISDNPCGNTH [H103R] | 0.14 |
| MAAAAAAAAEQQSSNGPVKKSMREKAVERRSVNKEHNSNFKAGYIPIDEDRLHKTGLRGRKGNLAICVIILLFILAVINLIITLVIWAVIRIGPNGCDSMEFMESGLLRFKQVSDMGVIHPLYKSTVGGRRNENLVITGNNQPIVFQQGTTKLSVENNKTSITSDIGMQFFDPRTQNILFSTDYETHEFHLPSGVKSLNVQKASTERITSNATSDLNIKVDGRAIVRGNEGVFIMGKTIEFHMGGNMELKAENSIILNGSVMVSTTRLPSSSSGDQLGSGDWVRYKLCMCADGTLFKVQVTSQNMGCQISDNPCGNTH [H103M] | -0.23 |
| MAAAAAAAAEQQSSNGPVKKSMREKAVERRSVNKEHNSNFKAGYIPIDEDRLHKTGLRGRKGNLAICVIILLFILAVINLIITLVIWAVIRIGPNGCDSMEFTESGLLRFKQVSDMGVIHPLYKSTVGGRRNENLVITGNNQPIVFQQGTTKLSVENNKTSITSDIGMQFFDPRTQNILFSTDYETHEFHLPSGVKSLNVQKASTERITSNATSDLNIKVDGRAIVRGNEGVFIMGKTIEFHMGGNMELKAENSIILNGSVMVSTTRLPSSSSGDQLGSGDWVRYKLCMCADGTLFKVQVTSQNMGCQISDNPCGNTH [H103T] | 0.65 |
| MAAAAAAAAEQQSSNGPVKKSMREKAVERRSVNKEHNSNFKAGYIPIDEDRLHKTGLRGRKGNLAICVIILLFILAVINLIITLVIWAVIRIGPNGCDSMEFNESGLLRFKQVSDMGVIHPLYKSTVGGRRNENLVITGNNQPIVFQQGTTKLSVENNKTSITSDIGMQFFDPRTQNILFSTDYETHEFHLPSGVKSLNVQKASTERITSNATSDLNIKVDGRAIVRGNEGVFIMGKTIEFHMGGNMELKAENSIILNGSVMVSTTRLPSSSSGDQLGSGDWVRYKLCMCADGTLFKVQVTSQNMGCQISDNPCGNTH [H103N] | 0.13 |
| MAAAAAAAAEQQSSNGPVKKSMREKAVERRSVNKEHNSNFKAGYIPIDEDRLHKTGLRGRKGNLAICVIILLFILAVINLIITLVIWAVIRIGPNGCDSMEFPESGLLRFKQVSDMGVIHPLYKSTVGGRRNENLVITGNNQPIVFQQGTTKLSVENNKTSITSDIGMQFFDPRTQNILFSTDYETHEFHLPSGVKSLNVQKASTERITSNATSDLNIKVDGRAIVRGNEGVFIMGKTIEFHMGGNMELKAENSIILNGSVMVSTTRLPSSSSGDQLGSGDWVRYKLCMCADGTLFKVQVTSQNMGCQISDNPCGNTH [H103P] | -0.42 |
| MAAAAAAAAEQQSSNGPVKKSMREKAVERRSVNKEHNSNFKAGYIPIDEDRLHKTGLRGRKGNLAICVIILLFILAVINLIITLVIWAVIRIGPNGCDSMEFSESGLLRFKQVSDMGVIHPLYKSTVGGRRNENLVITGNNQPIVFQQGTTKLSVENNKTSITSDIGMQFFDPRTQNILFSTDYETHEFHLPSGVKSLNVQKASTERITSNATSDLNIKVDGRAIVRGNEGVFIMGKTIEFHMGGNMELKAENSIILNGSVMVSTTRLPSSSSGDQLGSGDWVRYKLCMCADGTLFKVQVTSQNMGCQISDNPCGNTH [H103S] | 0.06 |
| MAAAAAAAAEQQSSNGPVKKSMREKAVERRSVNKEHNSNFKAGYIPIDEDRLHKTGLRGRKGNLAICVIILLFILAVINLIITLVIWAVIRIGPNGCDSMEFEESGLLRFKQVSDMGVIHPLYKSTVGGRRNENLVITGNNQPIVFQQGTTKLSVENNKTSITSDIGMQFFDPRTQNILFSTDYETHEFHLPSGVKSLNVQKASTERITSNATSDLNIKVDGRAIVRGNEGVFIMGKTIEFHMGGNMELKAENSIILNGSVMVSTTRLPSSSSGDQLGSGDWVRYKLCMCADGTLFKVQVTSQNMGCQISDNPCGNTH [H103E] | -0.33 |
| MAAAAAAAAEQQSSNGPVKKSMREKAVERRSVNKEHNSNFKAGYIPIDEDRLHKTGLRGRKGNLAICVIILLFILAVINLIITLVIWAVIRIGPNGCDSMEFKESGLLRFKQVSDMGVIHPLYKSTVGGRRNENLVITGNNQPIVFQQGTTKLSVENNKTSITSDIGMQFFDPRTQNILFSTDYETHEFHLPSGVKSLNVQKASTERITSNATSDLNIKVDGRAIVRGNEGVFIMGKTIEFHMGGNMELKAENSIILNGSVMVSTTRLPSSSSGDQLGSGDWVRYKLCMCADGTLFKVQVTSQNMGCQISDNPCGNTH [H103K] | -0.02 |
| MAAAAAAAAEQQSSNGPVKKSMREKAVERRSVNKEHNSNFKAGYIPIDEDRLHKTGLRGRKGNLAICVIILLFILAVINLIITLVIWAVIRIGPNGCDSMEFHDSGLLRFKQVSDMGVIHPLYKSTVGGRRNENLVITGNNQPIVFQQGTTKLSVENNKTSITSDIGMQFFDPRTQNILFSTDYETHEFHLPSGVKSLNVQKASTERITSNATSDLNIKVDGRAIVRGNEGVFIMGKTIEFHMGGNMELKAENSIILNGSVMVSTTRLPSSSSGDQLGSGDWVRYKLCMCADGTLFKVQVTSQNMGCQISDNPCGNTH [E104D] | 0.17 |
| MAAAAAAAAEQQSSNGPVKKSMREKAVERRSVNKEHNSNFKAGYIPIDEDRLHKTGLRGRKGNLAICVIILLFILAVINLIITLVIWAVIRIGPNGCDSMEFHASGLLRFKQVSDMGVIHPLYKSTVGGRRNENLVITGNNQPIVFQQGTTKLSVENNKTSITSDIGMQFFDPRTQNILFSTDYETHEFHLPSGVKSLNVQKASTERITSNATSDLNIKVDGRAIVRGNEGVFIMGKTIEFHMGGNMELKAENSIILNGSVMVSTTRLPSSSSGDQLGSGDWVRYKLCMCADGTLFKVQVTSQNMGCQISDNPCGNTH [E104A] | 0.22 |
| MAAAAAAAAEQQSSNGPVKKSMREKAVERRSVNKEHNSNFKAGYIPIDEDRLHKTGLRGRKGNLAICVIILLFILAVINLIITLVIWAVIRIGPNGCDSMEFHCSGLLRFKQVSDMGVIHPLYKSTVGGRRNENLVITGNNQPIVFQQGTTKLSVENNKTSITSDIGMQFFDPRTQNILFSTDYETHEFHLPSGVKSLNVQKASTERITSNATSDLNIKVDGRAIVRGNEGVFIMGKTIEFHMGGNMELKAENSIILNGSVMVSTTRLPSSSSGDQLGSGDWVRYKLCMCADGTLFKVQVTSQNMGCQISDNPCGNTH [E104C] | 0.35 |

From the supplement of paper PMC10266784
